The chains are these.
B1: NKAP: human host interactor protein, Gene ID 79576, expressed from transfected ORF vector (protein)
chain: MAPVSGSRSPDREASGSGGRRRSSSKSPKPSKSARSPRGRRSRSHSCSRSGDRNGLTHQLGGLSQGSRNQSYRSRSRSRSRERPSAPRGIPFASASSSVYYGSYSRPYGSDKPWPSLLDKEREESLRQKRLSERERIGELGAPEVWGLSPKNPEPDSDEHTPVEDEEPKKSTTSASTSEEEKKKKSSRSKERSKKRRKKKSSKRKHKKYSEDSDSDSDSETDSSDEDNKRRAKKAKKKEKKKKHRSKKYKKKRSKKSRKESSDSSSKESQEEFLENPWKDRTKAEEPSDLIGPEAPKTLTSQDDKPLNYGHALLPGEGAAMAEYVKAGKRIPRRGEIGLTSEEIASFECSGYVMSGSRHRRMEAVRLRKENQIYSADEKRALASFNQEERRKRENKILASFREMVYRKTKGKDDK
B2: LOC541468: human host interactor protein, Gene ID 541468, expressed from transfected ORF vector (protein)
chain: MEGTVESQTPDLRDVEGKVGRKTPEGLLRGLRGECELGTSGALLLPGASSTGHDLGDKIMALKMELAYLRAIDVKILQQLVTLNEGIEAVRWLLEERGTLTSHCSSLTSSQYSLTGGSPGRSRRGSWDSLPDTSTTDRLDSVSIGSFLDTVAPSELDEQGPPGAPRSEMDWAKVIAGGERARTEVDVAATRLGSLRAVWKPPGERLQGGPPESPEDESAKLGFEAHWFWEQCQDDVTFL
B3: KRT15: human host interactor protein, Gene ID 3866, expressed from transfected ORF vector (protein)
chain: MTTTFLQTSSSTFGGGSTRGGSLLAGGGGFGGGSLSGGGGSRSISASSARFVSSGSGGGYGGGMRVCGFGGGAGSVFGGGFGGGVGGGFGGGFGGGDGGLLSGNEKITMQNLNDRLASYLDKVRALEEANADLEVKIHDWYQKQTPTSPECDYSQYFKTIEELRDKIMATTIDNSRVILEIDNARLAADDFRLKYENELALRQGVEADINGLRRVLDELTLARTDLEMQIEGLNEELAYLKKNHEEEMKEFSSQLAGQVNVEMDAAPGVDLTRVLAEMREQYEAMAEKNRRDVEAWFFSKTEELNKEVASNTEMIQTSKTEITDLRRTMQELEIELQSQLSMKAGLENSLAETECRYATQLQQIQGLIGGLEAQLSELRCEMEAQNQEYKMLLDIKTRLEQEIATYRSLLEGQDAKMAGIAIREASSGGGGSSSNFHINVEESVDGQVVSSHKREI
B4: MINA: human host interactor protein, Gene ID 84864, expressed from transfected ORF vector (protein)
chain: MPKKAKPTGSGKEEGPAPCKQMKLEAAGGPSALNFDSPSSLFESLISPIKTETFFKEFWEQKPLLIQRDDPALATYYGSLFKLTDLKSLCSRGMYYGRDVNVCRCVNGKKKVLNKDGKAHFLQLRKDFDQKRATIQFHQPQRFKDELWRIQEKLECYFGSLVGSNVYITPAGSQGLPPHYDDVEVFILQLEGEKHWRLYHPTVPLAREYSVEAEERIGRPVHEFMLKPGDLLYFPRGTIHQADTPAGLAHSTHVTISTYQNNSWGDFLLDTISGLVFDTAKEDVELRTGIPRQLLLQVESTTVATRRLSGFLRTLADRLEGTKELLSSDMKKDFIMHRLPPYSAGDGAELSTPGGKLPRLDSVVRLQFKDHIVLTVLPDQDQSDEAQEKMVYIYHSLKNSRETHMMGNEEETEFHGLRFPLSHLDALKQIWNSPAISVKDLKLTTDEEKESLVLSLWTECLIQVV
B5: MIZF: human host interactor protein, Gene ID 25988, expressed from transfected ORF vector (protein)
chain: MPPPGKVPRKENLWLQCEWGSCSFVCSTMEKFFEHVTQHLQQHLHGSGEEEEEEEEDDPLEEEFSCLWQECGFCSLDSSADLIRHVYFHCYHTKLKQWGLQALQSQADLGPCILDFQSRNVIPDIPDHFLCLWEHCENSFDNPEWFYRHVEAHSLCCEYEAVGKDNPVVLCGWKGCTCTFKDRSKLREHLRSHTQEKVVACPTCGGMFANNTKFLDHIRRQTSLDQQHFQCSHCSKRFATERLLRDHMRNHVNHYKCPLCDMTCPLPSSLRNHMRFRHSEDRPFKCDCCDYSCKNLIDLQKHLDTHSEEPAYRCDFENCTFSARSLCSIKSHYRKVHEGDSEPRYKCHVCDKCFTRGNNLTVHLRKKHQFKWPSGHPRFRYKEHEDGYMRLQLVRYESVELTQQLLRQPQEGSGLGTSLNESSLQGIILETVPGEPGRKEEEEEGKGSEGTALSASQDNPSSVIHVVNQTNAQGQQEIVYYVLSEAPGEPPPAPEPPSGGIMEKLQGIAEEPEIQMV
B6: MLLT11: human host interactor protein, Gene ID 10962, expressed from transfected ORF vector (protein)
chain: MRDPVSSQYSSFLFWRMPIPELDLSELEGLGLSDTATYKVKDSSVGKMIGQATAADQEKNPEGDGLLEYSTFNFWRAPIASIHSFELDLL
B7: HOXD3: human host interactor protein, Gene ID 3232, expressed from transfected ORF vector (protein)
chain: MLFEQGQQALELPECTMQKAAYYENPGLFGGYGYSKTTDTYGYSTPHQPYPPPAAASSLDTDYPGSACSIQSSAPLRAPAHKGAELNGSCMRPGTGNSQGGGGGSQPPGLNSEQQPPQPPPPPPTLPPSSPTNPGGGVPAKKPKGGPNASSSSATISKQIFPWMKESRQNSKQKNSCATAGESCEDKSPPGPASKRVRTAYTSAQLVELEKEFHFNRYLCRPRRVEMANLLNLTERQIKIWFQNRRMKYKKDQKAKGILHSPASQSPERSPPLGGAAGHVAYSGQLPPVPGLAYDAPSPPAFAKSQPNMYGLAAYTAPLSSCLPQQKRYAAPEFEPHPMASNGGGFASANLQGSPVYVGGNFVESMAPASGPVFNLGHLSHPSSASVDYSCAAQIPGNHHHGPCDPHPTYTDLSAHHSSQGRLPEAPKLTHL
B8: DLAT: human host interactor protein, Gene ID 1737, expressed from transfected ORF vector (protein)
chain: MWRVCARRAQNVAPWAGLEARWTALQEVPGTPRVTSRSGPAPARRNSVTTGYGGVRALCGWTPSSGATPRNRLLLQLLGSPGRRYYSLPPHQKVPLPSLSPTMQAGTIARWEKKEGDKINEGDLIAEVETDKATVGFESLEECYMAKILVAEGTRDVPIGAIICITVGKPEDIEAFKNYTLDSSAAPTPQAAPAPTPAATASPPTPSAQAPGSSYPPHMQVLLPALSPTMTMGTVQRWEKKVGEKLSEGDLLAEIETDKATIGFEVQEEGYLAKILVPEGTRDVPLGTPLCIIVEKEADISAFADYRPTEVTDLKPQVPPPTPPPVAAVPPTPQPLAPTPSAPCPATPAGPKGRVFVSPLAKKLAVEKGIDLTQVKGTGPDGRITKKDIDSFVPSKVAPAPAAVVPPTGPGMAPVPTGVFTDIPISNIRRVIAQRLMQSKQTIPHYYLSIDVNMGEVLLVRKELNKILEGRSKISVNDFIIKASALACLKVPEANSSWMDTVIRQNHVVDVSVAVSTPAGLITPIVFNAHIKGVETIANDVVSLATKAREGKLQPHEFQGGTFTISNLGMFGIKNFSAIINPPQACILAIGASEDKLVPADNEKGFDVASMMSVTLSCDHRVVDGAVGAQWLAEFRKYLEKPITMLL
B9: TTC23: human host interactor protein, Gene ID 64927, expressed from transfected ORF vector (protein)
chain: MQESQETHISNHLDEVVAAVSITHRKKFQNKLLQTALFQPPREKLHLCEEKAKSYSNSHEYKQAVHELVRCVALTRICYGDSHWKLAEAHVNLAQGYLQLKGLSLQAKQHAEKARQILANSIVPPYSENTDVFKFSIELFHTMGRALLSLQKFKEAAENLTKAERLSKELLQCGRIIKEEWIEIEARIRLSFAQVYQGQKKSKEALSHYQAALEYVEISKGETSRECVPILRELAGVEQALGLHDVSINHFLQAHLIILSRSPSQVEAADSAHIVAHAAVASGRHEHHDVAEQYFQESMAHLKDSEGMGRTKFLSIQDEFCHFLQMTGQKERATSILRESLEAKVEAFGDFSPEVAETYRLLGGADLAQGNHSGARKKLKKCLQIQTLLYGPQDKRTLATQQAMGMLSTAPKVASKPRQASKAKVAFCTSIPQDTLLGKARPGTTAD

The text below walks through data of patent US20120090043A1, “TARGETS FOR RETROVIRUS ASSOCIATED DISEASES” (priority 2009, published 2012).

The first assay deals with HIV-1 LTR promoter transactivation by HIV-1 Tat. Briefly: Transactivation assay, HIV-1 LTR luciferase reporter with HIV-1 Tat. To be noted: HEK293 cells co-transfected with pHIV1LTR-Luc, HIV-1 Tat and the human ORF; relative luciferase activity 24 h post-transfection; positive if >=2 or <=0.5 and p<0.05. The assay is classed as cell-based. An excerpt:
The plasmids pHIV1LTR-Luc or pHTLV1LTR-Luc containing a luciferase reporter gene under the control of the HIV-1 or HTLV-1 LTR promoters and plasmids expressing either HIV-1 Tat or HTLV-1 Tax and each human ORF found to interact with viral proteins were transfected into 10^4 HEK293 cells using the calcium phosphate method. Twenty-four hours post-transfection, cells were washed three times with PBS, lysed and luciferase activities determined from two independent transfection experiments in triplicate. We computed a paired t-test to assess the difference of the means between samples with and without the human interactor. For a trial to be considered positive, the relative luciferase activities has to be >=2 or <=0.5, and the p-value of the t-test<0.05.
Many HIV/HTLV-human interactions in our data set (130/212) involved the retroviral transactivator proteins HTLV-1 Tax (57/212), HTLV-2 Tax2 (49/212), HIV-1 Tat (10/212) and HIV-2 Tat (14/212). Human proteins interacting with viral transactivators likely influence Tat or Tax transactivation. Expression vectors encoding human ORFs and HIV-1 Tat or HTLV-1 Tax proteins were tested in a transactivation reporter assay against reporter plasmids harboring HIV-1 or HTLV-1 viral promoter sequences cloned upstream of the luciferase reporter gene. In the controls Tat or Tax respectively activated HIV or HTLV LTR-directed gene expression. Co-transfection of interacting human ORFs identified 71 proteins (54% of the 131 human targets in our data set) that regulated HIV (26.7% of targets), HTLV (37.4% of targets) or both (9.9% of targets) LTR promoter activation by Tat or Tax (see Tables 7 and 8; Table 13 below containing quantitative data on the regulation of transactivation). Wherever not expressly specified, constructs used herein were generally made by sub-cloning entry clones from the ORFeome V3.1 into suitable destination vectors.
The molecule B1 showed an HIV_LTR transactiv. of 2.68 fold change. B2: the HIV_LTR transactiv. stood at 2.38 fold change. Same read-out and setting: the result for B3 reads 0.33 fold change; that for B4, 0.40 fold change.

Molecule B5 gave an HIV_LTR transactiv. of 2.50 fold change.

As to B6, the HIV_LTR transactiv. is reported as 3.41 fold change. On the same count and under the same terms, under B7 stands 7.30 fold change. The same measure, in the same setting: the result for B8 reads 6.90 fold change.

Another assay has as its system HTLV-1 LTR promoter transactivation by HTLV-1 Tax. In words: Transactivation assay, HTLV-1 LTR luciferase reporter with HTLV-1 Tax. The assay is classed as cell-based. To be noted: HEK293 cells co-transfected with pHTLV1LTR-Luc, HTLV-1 Tax and the human ORF; relative luciferase activity 24 h post-transfection; positive if >=2 or <=0.5 and p<0.05. An excerpt: Twenty-four hours post-transfection, cells were washed three times with PBS, lysed and luciferase activities determined from two independent transfection experiments in triplicate. We computed a paired t-test to assess the difference of the means between samples with and without the human interactor. For a trial to be considered positive, the relative luciferase activities has to be >=2 or <=0.5, and the p-value of the t-test<0.05.
Expression vectors encoding human ORFs and HIV-1 Tat or HTLV-1 Tax proteins were tested in a transactivation reporter assay against reporter plasmids harboring HIV-1 or HTLV-1 viral promoter sequences cloned upstream of the luciferase reporter gene. […] Wherever not expressly specified, constructs used herein were generally made by sub-cloning entry clones from the ORFeome V3.1 into suitable destination vectors.
As for B9, the HTLV_LTR transactiv. was 0.21 fold change.
